Test results as given in patent US6770740B1, “Crosslinked DNA condesate compositions and gene delivery methods” (The Regents of the University of Michigan, priority 1999, dated 2004).
Bridges are numbered along the chain shown (N, C = ends). Where no end group is shown, it is not given here.

Experiments:
HepG2 cells [1] = assay: Transient SEAP gene expression over 10 days; type: cell-based; conditions: with chloroquine
Protocol: HepG2 cells (3×10^5) were plated on 6×35 mm wells and grown for 48 h to 40% confluence in MEM supplemented with 10% fetal calf serum (FCS). Crosslinked DNA condensates (10 μg of DNA in 200 μL) were transfected in triplicate by drop wise addition to cells in 2% FCS either with or without 80 μM chloroquine followed by 5 h incubation, after which the media was replaced with 2 mL of MEM containing 10% fetal calf serum and allowed to incubate for an additional 19 h. Wells were sampled for 10 days at 24 h intervals by removing and freezing (−20° C.) the media and replacing it with 2 mL of fresh 10% FCS MEM.
The amount of SEAP in each well was determined using a chemiluminescent kit. Media (50 μL) was combined with 50 μl of dilution buffer followed by incubation at 65° C. for 30 min to denature endogenous alkaline phosphatase. […] After 30 min, the luminescence was measured with a 10 s integration on a Berthold Lumat™ LB 9501 luminometer. Light units were converted to μg/ml of SEAP using a standard curve constructed by adding known quantities of SEAP to cell homogenate. Background alkaline phosphatase production was determined from a 10 day null control that was subtracted from each data set.

HepG2 cells [2] = assay: Luciferase reporter gene expression in HepG2 cells, Example 5; type: cell-based
Protocol: HepG2 cells (1.5×10^5) were plated on 6×35 mm wells and grown to 40-70% confluency in MEM supplemented with 10% FBS, penicillin and streptomycin (10,000 U/ml), sodium pyruvate (100 mM), and L-glutamine (200 mM). Transfections were performed in MEM (2 ml per 35 mm well) with 2% FBS and 80 μM chloroquine. Peptide DNA condensates (10 μg of DNA in 0.2 ml HBM) were added dropwise to triplicate wells. After a 5 h incubation at 37° C., the media was replaced with MEM supplemented with 10% FBS. After 24 h, cells were washed twice with ice-cold phosphate buffered saline (calcium and magnesium free) and then treated with 0.5 ml of ice-cold lysis buffer (25 mM Tris chloride pH 7.8, 1 mM EDTA, 8 mM magnesium chloride, 1% Triton X-100, 1 mM DTT) for 10 min. The cell lysate was scraped, transferred to 1.5 ml microcentrifuge tubes, and centrifuged for 7 min at 13,000 g at 4° C. to pellet debris.
Lysis buffer (300 μl), sodium-ATP (4 μl of a 180 mM solution, pH 7, 4° C.) and cell lysate (100 μl, 4° C.) were combined in a test tube, briefly mixed and immediately placed in the luminometer. Luciferase relative light units (RLU) were recorded on a Lumat™ LB 9501 (Berthold systems, Germany) with 10 sec integration after automatic injection of 100 μl of 0.5 mM D-luciferin (prepared fresh in lysis buffer without DTT). The RLU were converted in fmol using a standard curve generated by adding a known amount of luciferase (0.01 to 100 fmols with specific activity of 2.5 nU/fmol) to 35 mm wells containing 40-70% confluent HepG2 cells. The cells were processed as described above resulting in a standard curve with an average slope of 7.8×10^6 RLU per fmol of enzyme. Protein concentrations were measured by Bradford assay using bovine serum albumin as a standard (Bradford, 1976). The amount of luciferase recovered in each sample was normalized to milligrams of protein and reported as the mean and standard deviation obtained from triplicate transfections.
LipofectAce™ (Gibco BRL, 1:2.5 w/w dimethyl diotadecylammonium bromide and dioleoyl phosphatidylethanolamine) was used to mediate gene transfection according to the manufacturer's instructions. The ratio of DNA to LepofectAce™ was optimized for HepG2 cells. An optimal DNA/LipofectAce™ ratio was achieved by dissolving 10 μg of DNA in 100 μl serum free media (SFM) followed by adding 60 μl of LipofectAce™ prepared in 140 μl of SFM. The LipfectAce™ DNA complex was then diluted with 1.7 ml of SFM and used to transfect HepG2 cells for 5 h followed by replacing the transfecting media with media supplemented with 10% FBS. The cells were incubated for a total of 24 h, harvested and analyzed for luciferase as described above.

[3] = QELS particle size and zeta potential of cross-linking peptide DNA condensates, Example 5; type: physicochemical
Protocol: The particle size of each peptide DNA condensate was determined by quasielastic light scattering (QELS) at a scatter angle of both 15° and 90° on a Brookhaven ZetaPlus™ particle sizer. Condensates were prepared at a DNA concentration of 50 μg/ml in 400 μl HBM at a stoichiometry of 0.4 nmol of peptide per μg of DNA corresponding to a charge ratio of approximately 2:1 for each. The mean diameter and population distribution were computed from the diffusion coefficient using a unimodal cummulant analysis supplied by the manufacturer.
The particle size and zeta peptide IV DNA condensates were determined by titrating 7.5 to 37.5 nmol of peptide with 75 μg of DNA in 1.5 ml of HBM to produce 50 μg/ml DNA condensates with charge ratio of 0.5-2.5. The zeta potential was averaged from 10 determines.

HepG2 cells [4] = assay: Cell binding of 125I-DNA condensates, Example 1; type: cell-based; conditions: 5 h transfection, 10 μg 125I-DNA condensates
Protocol: Iodinated plasmid DNA was prepared with specific activity of 300 nCi per μg of DNA as described previously (Teribesi et al., 1998). Prior to forming DNA condensates, the specific activity of the ^125I DNA was adjusted to 4.5 nCi per μg of DNA by combining with unlabeled plasmid. DNA condensates were prepared using AlkCWK18, PEG-SS-CWK18 or PEG-VS-CWK18 as described above. Peptide ^125I-DNA condensates (10 μg) were used to transfer HepG2 cells for 5 h according to the procedure described above. The radioactive media was removed, cells were washed with phosphate buffered saline, harvested with lysis buffer, and the cell-associated radioactivity was quantified by gamma counting.

[5] = Solubility of peptide DNA condensates: particle size as a function of DNA concentration; type: physicochemical; conditions: at 2 mg/ml DNA
plasmid DNA = assay: Fluorescent dye (thiazole orange) displacement assay of peptide binding to DNA, Example 1; conditions: corresponding to a charge ratio of 1.8:1
Protocol: Peptide DNA condensates were formed by adding 75 μg of DNA (pCMVL in 750 μl of 5 mM Hepes pH 7.4) to varying amounts of peptide (7.5 to 90 nmol in 750 μl of Hepes) while vortexing, followed by equilibration at RT for 1 h. Peptide binding to DNA was monitored by a fluorescent dye displacement assay (Wadhwa et al. 1997). A 1 μg aliquot of the peptide DNA condensate was diluted to 1 ml in Hepes containing 0.1 μM thiazole orange. The fluorescence of the intercalated dye was measured on an LS50B fluorimeter (Perkin Elmer, UK) in a microcuvette by exciting at 500 nm while monitoring emission at 530 nm.

[6] = QELS particle size and zeta potential of PEG-peptide DNA condensates and co-condensates, Example 1; type: physicochemical
Protocol: The particle size of peptide DNA condensates were analyzed at a DNA concentration of 50 μg/ml in Hepes by quasielastic light scattering (QELS). The particle surface change was determined by zeta potential analysis using a Brookhaven ZetaPlus™ (Brookhaven Instruments).
DNA co-condensates were prepared by add-mixing AlkCWK18 and PEG-VS-CWK18 in ratios ranging from 0 to 100 mol %, and condensing DNA at a charge ratio of 2.3:1 as described above. To establish the mol ratio of peptides bound to DNA, condensates were dialyzed in a fixed volume (0.5 ml) dialyzer for 75 h against water using a 100,000 MWCO membrane. Peptide DNA condensates in the retentate (0.5 ml) were dissociated by adding 50 μl of 5 M sodium chloride in 0.1% TFA. AlkCWK18 and PEG-VS-CWK18 were quantified by injecting 1 nmol of peptide (100 μl) onto analytical RP-HPLC eluted with 0.1% TFA and a gradient of acetonitrile (5 to 65% over 30 min) while detecting tryptophan by fluorescence (λex 280 nm, λem 350 nm). The peak integration areas were used to quantify AlkCWK18 and PEG-VS-CWK18 with reference to standard curves developed for each peptide.

HepG2 cells [7] = assay: In vitro luciferase gene expression, Example 1; type: cell-based; conditions: HepG2, 24 h post-transfection, 10 μg DNA, 80 μM chloroquine
Protocol: HepG2 cells were plated at 1.5×10^5 cells per 35 mm well and grown to 40-70% confluence in MEM supplemented with 10% fetal calf serum (FCS). Peptide DNA condensates (10 μg of DNA) were added dropwise to triplicate sets of cells in 2% FCS containing 80 μM chloroquine. After 5 h incubation at 37° C., the media was replaced with MEM supplemented with 10% FCS, and luciferase expression was determined at 24 h. Cells were washed twice with ice-cold phosphate buffered saline (calcium and magnesium free) and then treated with 0.5 ml of ice-cold lysis buffer (25 mM Tris hydrochloride pH 7.8, 1 mM EDTA, 8 mM magnesium chloride, 1% Triton X-100, 1 mM DTT) for 10 min. The cell lysate was scraped, transferred to 1.5 ml micro centrifuge tubes, and centrifuged for 7 min at 13,000 g at 4° C. to pellet debris.
Lysis buffer (300 μl), sodium-ATP (4 μl of a 180 mM solution, pH 7, 4° C.) and cell lysate (100 μl, 4° C.) were combined in a test tube, briefly mixed and immediately placed in the luminometer. Luciferase relative light units (RLU) were recorded on a Lumat™ LB 9501 (Berthold Systems, Germany) with 10 sec integration after automatic injection of 100 μl of 0.5 mM D-luciferin (prepared fresh in lysis buffer without DTT). […]

peptide:DNA stoichiometry at the asymptote of the dye displacement titration curve (relative DNA binding affinity) (plasmid DNA)	Substance	more gene product relative to CWK18 DNA condensates (HepG2 cells [1])	slope of the day 7-10 cumulative SEAP expression (HepG2 cells [1]; HMW polylysine panel (FIG. 29B))	inferiority to polylysine1007 as a DNA carrier (gene expression) (HepG2 cells [2])	Particle Size Mean Diameter, Oxidized, 15° ([3]; HBM after 2 h incubation, 50 μg/ml DNA, 0.4 nmol peptide per μg DNA, scattering angle 15°)	Particle Size Mean Diameter, Oxidized, 90° ([3]; HBM after 2 h incubation, 50 μg/ml DNA, 0.4 nmol peptide per μg DNA, scattering angle 90°)	Particle Size Mean Diameter, Saline ([3]; HBM with added saline (0.15 M) after 15 min)	Particle Size Mean Diameter, Reduced ([3]; following addition of TCEP (1 mM))	cell associated 125I-DNA, percent of dose (HepG2 cells [4])	mean diameter of DNA condensates [5]	zeta potential of DNA condensates ([6]; charge ratio 1.8:1)	mean diameter of DNA condensates ([6]; charge ratio of 1.8:1 or higher, 50 μg/ml DNA in Hepes)	reduction of spontaneous gene transfer (luciferase expression) relative to AlkCWK18 DNA condensates (HepG2 cells [7])
–	Lys18-Trp-Cys-S-S-Cys-Trp-Lys18 (KKKKKKKKKKKKKKKKKKWCCWKKKKKKKKKKKKKKKKKK; disulfide 20-21; also: disulfide-linked dimer of two CWK18 chains, no peptide bond between positions 20 and 21) [DiCWK18]	approximately 10%	32.7 ng/mL	5 fold	74 nm	68 nm	171 nm	153 nm	–	–	–	–	–
0.3 nmol per μg of DNA	PEG-SS-CWK18: reducible PEG-peptide from PEG-orthopyridyl-disulfide (5 kDa) and the sulfhydryl of CWK18 (CWKKKKKKKKKKKKKKKKKK; not fully specified (residue 1))	–	–	–	–	–	–	–	6.8%	88 nm	+10 mV	90 nm	five-fold
